T1: BZR1 (Arabidopsis thaliana, UniProt Q8S307)
T1 construct: expressed in transfected cells; host or cells: Nicotiana benthamiana leaves (Agrobacterium infiltration)
T1 sequence (Q8S307 1-336): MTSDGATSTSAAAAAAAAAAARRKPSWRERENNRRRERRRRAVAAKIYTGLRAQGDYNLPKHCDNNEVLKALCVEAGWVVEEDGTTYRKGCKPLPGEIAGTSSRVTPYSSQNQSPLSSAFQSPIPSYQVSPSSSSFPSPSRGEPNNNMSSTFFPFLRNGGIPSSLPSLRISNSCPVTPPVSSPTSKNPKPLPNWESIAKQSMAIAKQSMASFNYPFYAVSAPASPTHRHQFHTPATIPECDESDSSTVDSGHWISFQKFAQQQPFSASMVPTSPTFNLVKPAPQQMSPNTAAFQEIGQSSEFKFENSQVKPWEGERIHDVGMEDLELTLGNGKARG

T2: BZR1 (Arabidopsis thaliana, UniProt Q8S307)
T2 construct: expressed in transfected cells; host or cells: yeast strain MaV203
T2 sequence (Q8S307 with tags, fused parts or gaps): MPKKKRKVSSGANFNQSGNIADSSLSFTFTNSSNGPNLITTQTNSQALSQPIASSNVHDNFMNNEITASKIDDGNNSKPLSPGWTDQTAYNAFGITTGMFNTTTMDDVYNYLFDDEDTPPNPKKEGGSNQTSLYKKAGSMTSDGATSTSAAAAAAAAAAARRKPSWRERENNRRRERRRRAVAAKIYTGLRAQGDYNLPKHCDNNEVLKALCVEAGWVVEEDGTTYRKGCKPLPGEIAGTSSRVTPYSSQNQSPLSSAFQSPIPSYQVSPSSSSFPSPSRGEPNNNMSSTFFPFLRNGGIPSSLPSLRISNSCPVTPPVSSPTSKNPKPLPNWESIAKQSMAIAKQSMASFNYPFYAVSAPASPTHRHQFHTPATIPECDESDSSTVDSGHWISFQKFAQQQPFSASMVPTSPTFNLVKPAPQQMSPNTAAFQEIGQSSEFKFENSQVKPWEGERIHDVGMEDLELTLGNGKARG

B1: TPL: TOPLESS transcriptional co-repressor of Arabidopsis, SEQ ID NO: 60 (protein)
chain: MSSLSRELVFLILQFLDEEKFKETVHKLEQESGFFFNMKYFEDEVHNGNWDEVEKYLSGFTKVDDNRYSMKIFFEIRKQKYLEALDKHDRPKAVDILVKDLKVFSTFNEELFKEITQLLTLENFRENEQLSKYGDTKSARAIMLVELKKLIEANPLFRDKLQFPTLRNSRLRTLINQSLNWQHQLCKNPRPNPDIKTLFVDHSCGPPNGARAPSPVNNPLLGGIPKAGGFPPLGAHGPFQPTASPVPTPLAGWMSSPSSVPHPAVSAGAIALGGPSIPAALKHPRTPPTNASLDYPSADSEHVSKRTRPMGISDEVNLGVNMLPMSFSGQAHGHSPAFKAPDDLPKTVARTLSQGSSPMSMDFHPIKQTLLLVGTNVGDIGLWEVGSRERLVQKTFKVWDLSKCSMPLQAALVKEPVVSVNRVIWSPDGSLFGVAYSRHIVQLYSYHGGEDMRQHLEIDAHVGGVNDISFSTPNKQLCVITCGDDKTIKVWDAATGVKRHTFEGHEAPVYSVCPHYKENIQFIFSTALDGKIKAWLYDNMGSRVDYDAPGRWCTTMAYSADGTRLFSCGTSKDGESFIVEWNESEGAVKRTYQGFHKRSLGVVQFDTTKNRYLAAGDDFSIKFWDMDAVQLLTAIDGDGGLQASPRIRFNKEGSLLAVSGNENVIKIMANSDGLRLLHTFENISSESSKPAINSIAAAAAAAATSAGHADRSANVVSIQGMNGDSRNMVDVKPVITEESNDKSKIWKLTEVSEPSQCRSLRLPENLRVAKISRLIFTNSGNAILALASNAIHLLWKWQRNERNATGKATASLPPQQWQPASGILMTNDVAETNPEEAVPCFALSKNDSYVMSASGGKISLFNMMTFKTMATFMPPPPAATFLAFHPQDNNIIAIGMDDSTIQIYNVRVDEVKSKLKGHSKRITGLAFSNVLNVLVSSGADAQLCVWNTDGWEKQRSKVLPLPQGRPNSAPSDTRVQFHQDQAHFLVVHETQLAIYETTKLECMKQWAVRESLAPITHATFSCDSQLVYASFMDATVCVFSSANLRLRCRVNPSAYLPASLSNSNVHPLVIAAHPQEPNMFAVGLSDGGVHIFEPLESEGKWGVAPPAENGSASGAPTAPSVGASASDQPQR
modifications: Consensus sequence

Key:
BZR1 [1] = target: T1, BZR1; experiment: BiFC interaction with BZR1 in Nicotiana benthamiana leaves; type: cell-based; settings: fully expanded leaves, co-expressed with cYFP-BZR1
From the text: The binary BiFC-Gateway YFP vectors pDEST-VYNE(R)^GW (Venus aa 1-173) and pDEST-VYCE(R)^GW (Venus aa 156-239) with N-terminal fusions, were used to construct the following vectors; pDESTnYFP-BZR1, pDESTnYFP-NINJA, pDESTnYFP-PPD1, pDESTcYFP-BZR1, pDESTcYFP-PPD1, pDESTcYFP-PPD1Δppd, pDESTcYFP-PPD1Δtify and pDESTcYFP-PPD1Δjas*. For transient in planta expression of proteins interacting with PPD1 or BZR, NINJA and TPL were Gateway® sub-cloned into pRSh1, to construct pRSh1-NINJA and pRSh1-TPL. Plasmids for co-immunoprecipitation: A synthesised DNA construct encoding PPD1 with a 3×c-myc C-terminal fusion was sub-cloned into pRSh1 to produce pRSh1-PPD1-3×c-myc, while the NINJA cDNA sequence was sub-cloned into pB7FWG2,0 (Karimi et al 2002, Trends Plant Sci. 7, 193-195) to construct pB7FWG2-NINJA-GFP. When expressed these constructs produced proteins listed in sequences 60, 62, 70 71 72 73 74 75 76 77 78 79: including TOPLESS (TPL), NINJA, Bimolecular Fluorescence (BiFC) nYFP, BiFC cYFP, BiFC nYFP-NINJA, BiFC nYFP-BZR1, BiFC cYFP-PPD1, BiFC cYFP-NINJA, BiFC cYFP-BZR1, BiFC cYFP-PPD1-ppd, BiFC cYFP-PPD1-tify, BiFC cYFP-PPD1-jas*.
Transient BiFC experiments were performed using combinations of pDESTnYFP and pDESTcYFP plasmids, with or without plasmids for the expression of NINJA (pRSh1-NINJA) or TPL (pRSh1-TPL) and Agrobacterium-infiltration of Nicotiana benthamiana leaves. For infiltration Agrobacterium tumefaciens GV3101 strains containing the binary vectors were re-suspended from plates and prepared for transformation as described for the LUC assay. All YFP and expression strains were mixed in ratios of 1:1 (vol/vol) with the addition of strain P19 at 1/10th volume. Five leaf discs were sampled from each infiltrated leaf after 40 h. Two hours prior to sampling for microscopic fluorescence observations leaves were infiltrated with a 1 μg/ml DAPI solution to stain nuclei. YFP fluorescence and DAPI staining was detected using an Olympus Fluoview FV10i confocal laser scanning microscope. Each experiment was repeated twice.

BZR1 [2] = target: T2, BZR1; experiment: Yeast two hybrid (Y2H) interaction with BZR1; type: binding
From the text: The constructs for Y2H and BiFC assays were generated as follows. Arabidopsis DNA sequences encoding the open reading frames for; At4g14713 (PPD1) and truncation and deletion derivatives of PPD1: PPD1; PPD1Δppd (N-terminal truncation of sequences encoding aa 1-61), PPD1Δtify, (internal deletion of sequences encoding aa 154-186), PPD1Δjas*(C-terminal truncation of sequences encoding aa 229-313) (FIG. 5), At4g28910 (NINJA), At1g15750 (TPL), At1g75080 (BZR1), a synthetic PUAS-35S promoter, and sequences encoding GAL4DBD and c-myc fusion proteins were synthesised and sequence verified by GeneArt. Most sequences were supplied as clones in pENTR221 ready for Gateway cloning into yeast and plant expression vectors. The exception, a promoter sequence for in planta transcription activation assays, incorporating 5′ Xho1 and 3′ Nco1 restriction enzyme sites, was supplied cloned in pMA-RQ. Plasmids for the transient LUC reporter assay: A synthetic promoter with 5×UAS GAL4 DNA binding sites upstream of a −105 bp CaMV35S promoter was cloned into the XhoI-NcoI sites within a dual luciferase construct pNWA62, which contains an intron-containing Firefly Luciferase gene (LUC) and 35Spro::Renilla Luciferase (REN) as an internal standard, to construct pAML7. […]

Row | Molecule | interaction with BZR1 (BZR1 [1]) | interaction with BZR1 (BZR1 [2])
1 | nYFP-PPD1: BiFC fusion of PPD1 with the N-terminal Venus YFP fragment | no interaction was observed | 
2 | B1 |  | direct interaction occurs
